Patent US20240207461A1, “RADIOACTIVE ANTITUMOR AGENT” (NIHON MEDI-PHYSICS CO., LTD., priority 2021, published 2024)

Assays:
[1] = tested on: SW1990 tumor-bearing mice; test: Biodistribution and excretion route 168 hr after administration of ^111In-labeled antibodies; format: in vivo, Balb/c nude mice; conditions: for biodistribution at 168 hr after administration, blood / biodistribution at 168 hr after administration, kidney / biodistribution at 168 hr after administration, liver / biodistribution at 168 hr after administration, spleen / biodistribution at 168 hr after administration, tumor: ^111In-labeled antibody, tail vein, mean ± SD n=4 (n=3 for H02L04)
Procedure: (§1) Human pancreatic cancer cell line SW1990 (0.7×10^7 cells) were subcutaneously administered to Balb/c nude mice (male) from the flank to the back thereof.
(§2) When the tumor size reached about 150-300 mm^3 14 days after transplantation of SW1990, various ^111In-labeled antibodies prepared in Reference Example 1-1 were administered from the tail vein of the mice. The tumor volume was calculated from the following calculation formula.
A graph showing the results of confirming the biodistribution and the excretion route after the completion of SPECT-CT imaging 168 hr after administration are shown in FIG. 11.
(§3) In the Table, the tumor volume was calculated assuming 150 mm^3 in the absorbed dose of SPECT. The absorbed dose of the liver was calculated based on the mean (1.15±0.14 g, n=19) of the weight of the mouse liver used in this Reference Example. The numerical value of the biodistribution was expressed by the mean±standard deviation of n=4 (however, n=3 for H02L04).

[2] = tested on: SW1990 tumor-bearing mice; test: SPECT-CT imaging of ^111In-labeled antibodies, VOI analysis and absorbed dose calculation; format: in vivo, Balb/c nude mice; conditions: for SPECT absorbed dose liver / SPECT absorbed dose tumor: half-life converted from ^111In to ^225Ac, sphere model; for SPECT absorbed dose liver: mean liver weight 1.15 g; for SPECT absorbed dose tumor: tumor volume assumed 150 mm^3; for maximum tolerated dose (threshold dose/absorbed dose): threshold dose of liver assumed to be 30 Gy
Procedure: To find an anti-MUC5AC antibody with high tumor accumulation ability and high maximum tolerated dose, various antibodies were labeled with ^111In, administered to tumor-bearing mice, and SPECT-CT imaging was performed. Cumulative amount of radioactivity and absorbed dose in tumor and liver were calculated and compared using the obtained images.
as §1, §2
SPECT-CT imaging (small animal SPECT-CT apparatus: FX-3000, manufactured by Trifoil) was performed under the conditions in the following Table. The time points for imaging were 1, 6, 24, 48, 72, and 168 hr after administration. Image reconstruction was performed by the OSEM method for SPECT and the FBP method for CT. A VOI (volume of interest, three-dimensional ROI) analysis of the tumor and liver at each time point was performed. The count number per organ volume was corrected to % ID/g, the physical half-life was converted from ^111In to ^225Ac, the difference in physical half-life was corrected, and the time activity curve with the biological half-life added was obtained. The cumulative radioactivity amount was calculated from the integrated value of this time activity curve, and the absorbed dose was calculated in a sphere model (OLINDA/EXM ver2.0), and this was compared and examined for each antibody. However, for H01L03, a decrease in the time activity curve was not observed 168 hr after administration. Thus, the biological half-life was not considered and only the physical half-life was added.
When the threshold dose of liver was assumed to be 30 Gy, the maximum tolerated dose was estimated to be 3.90 MBq with a humanized antibody (H01L03) and 0.43 MBq with a chimeric antibody. The maximum tolerated dose (MBq) was calculated by threshold dose (Gy)/absorbed dose (Gy/MBq).
as §3

[3] = ^111In-labeled antibodies, SPECT-CT up to 168 hr

Row | Molecule | blood retention ([1]; 168 hr after administration) | excretion ([1]; 168 hr after administration) | biodistribution at 168 hr after administration, blood [1] | biodistribution at 168 hr after administration, kidney [1] | biodistribution at 168 hr after administration, liver [1] | biodistribution at 168 hr after administration, spleen [1] | biodistribution at 168 hr after administration, tumor [1] | decrease in the time activity curve ([2]; 168 hr after administration) | accumulation in the tumor (comparison among antibodies) [2, 3] | SPECT absorbed dose liver [2] | SPECT absorbed dose tumor [2] | maximum tolerated dose (threshold dose/absorbed dose) [2] | accumulation in the liver (comparison among antibodies) [2, 3]
1 | H01L03: anti-MUC5AC humanized antibody, heavy chain variable region H01 (SEQ ID NO: 1), light chain L03 (SEQ ID NO: 7), tested ^111In-labeled via DOTA-PEG-peptide (conjugate, 111In-DOTA-PEG-peptide label; Humanaized antibody heavy chain variable region 1 (H01); Humanaized antibody light chain variable region 3 (L03)) VH: EVQLLESGGGLVQPGGSLRLSCAASGFTFSNYGMSWVRQAPGKGLEWVSTISNSGRYTYFPDSVKGRFTISRDNSKNTLYLQMNSLRAEDTALYYCTRHLDYANYDAMDYWGQGTLVTVSS VL: DIQMTQSPSSLSASVGDRVTITCRASKSVTTSDFSYMHWYQQKPGKSPKLLIYLASNLESGVPSRFSGSGSGTDFSLTISSLQPEDFATYYCQHSREFPWTFGGGTKVEIK | high | slowest | 5.3 ± 1.3 % ID/g | 2.5 ± 0.4 % ID/g | 3.6 ± 1.7 % ID/g | 5.4 ± 0.8 % ID/g | 24.2 ± 3.9 % ID/g | not observed | highest | 7.7 Gy/MBq | 35.0 Gy/MBq | 3.90 MBq | –
2 | H02L04: anti-MUC5AC humanized antibody, H02 (SEQ ID NO: 2) and L04 (SEQ ID NO: 8), tested ^111In-labeled (conjugate, 111In label; Humanaized antibody heavy chain variable region 2 (H02); Humanaized antibody light chain variable region 4 (L04)) VH: LVQLVESGGGVVRPGGSLRLSCAASGFTFSNYGMSWIRQAPGKGLEWVSTISNSGRYTYFPDSVKGRFTISRDNAKNSLYLQMNSLRAEDTALYYCTRHLDYANYDAMDYWGQGTLVTVSS VL: DIVMTQSPDSLAVSLGERATINCKASKSVTTSDFSYLHWYQQKPGQPPKLLIYLASNLESGVPDRFSGSGSGTDFTLTISSLQAEDVAVYYCQHSREFPWTFGGGTKLEIK | – | – | 2.6 ± 2.3 % ID/g | 1.4 ± 1.0 % ID/g | 2.7 ± 0.7 % ID/g | 4.0 ± 3.0 % ID/g | 15.6 ± 6.2 % ID/g | – | – | 27.0 Gy/MBq | 13.7 Gy/MBq | – | –
3 | H01L04: anti-MUC5AC humanized antibody, H01 (SEQ ID NO: 1) and L04 (SEQ ID NO: 8), tested ^111In-labeled (conjugate, 111In label; Humanaized antibody heavy chain variable region 1 (H01); Humanaized antibody light chain variable region 4 (L04)) VH: EVQLLESGGGLVQPGGSLRLSCAASGFTFSNYGMSWVRQAPGKGLEWVSTISNSGRYTYFPDSVKGRFTISRDNSKNTLYLQMNSLRAEDTALYYCTRHLDYANYDAMDYWGQGTLVTVSS VL: DIVMTQSPDSLAVSLGERATINCKASKSVTTSDFSYLHWYQQKPGQPPKLLIYLASNLESGVPDRFSGSGSGTDFTLTISSLQAEDVAVYYCQHSREFPWTFGGGTKLEIK | – | – | 2.1 ± 0.8 % ID/g | 1.1 ± 0.3 % ID/g | 3.1 ± 0.9 % ID/g | 3.8 ± 1.2 % ID/g | 12.9 ± 2.6 % ID/g | – | – | 33.4 Gy/MBq | 15.3 Gy/MBq | – | –
4 | H04L04: anti-MUC5AC humanized antibody, H04 (SEQ ID NO: 4) and L04 (SEQ ID NO: 8), tested ^111In-labeled (conjugate, 111In label; Humanaized antibody heavy chain variable region 4 (H04); Humanaized antibody light chain variable region 4 (L04)) VH: EVQLLESGGGLVQPGGSLRLSCAVSGFTFSNYGMSWVRQAPGKGLEWVSTISNSGRYTYFPDSVKGRFTISRDNSRNTLYLQMNTLRAEDTAVYYCTRHLDYANYDAMDYWGQGTPVTVSS VL: DIVMTQSPDSLAVSLGERATINCKASKSVTTSDFSYLHWYQQKPGQPPKLLIYLASNLESGVPDRFSGSGSGTDFTLTISSLQAEDVAVYYCQHSREFPWTFGGGTKLEIK | – | – | 3.8 ± 0.7 % ID/g | 1.6 ± 0.2 % ID/g | 3.9 ± 1.4 % ID/g | 3.4 ± 0.3 % ID/g | 17.2 ± 4.2 % ID/g | – | – | 35.4 Gy/MBq | 15.0 Gy/MBq | – | –
5 | chimeric antibody: anti-MUC5AC chimeric antibody disclosed in Patent Literature 1 (SEQ ID NOs: 23 and 24), tested ^111In-labeled (conjugate, 111In label; Kimeric antibody heavy chain variable region 7 (H07); Kimeric antibody light chain variable region 8 (L08)) VH: EVKLVESGGVLVKSGGSLKLSCAVSGFTFSNYGMSWVRQTPEKRLEWVATISNSGRYTYFPDSVKGPFAISRDNAKNNLYLQMSSLRSADTALYYCTRHLDYANYDAMDYWGQGTSVTVSS VL: DIVLTQSPASLAVSLGQRATISCRASKSVTTSDFSYMHWYQQKPGQPPKLLLYLASNLESGVPDRFSGSGSGYDFYLNIHPVEEEDAATYYCQHSREFPWTFGGGTKLEIK | – | – | 2.2 ± 0.6 % ID/g | 1.8 ± 0.3 % ID/g | 7.9 ± 1.9 % ID/g | 5.0 ± 1.8 % ID/g | 11.6 ± 0.9 % ID/g | – | lowest | 70.1 Gy/MBq | 9.5 Gy/MBq | 0.43 MBq | highest
